Measured values: the DeepSol protein solubility set

experiment: soluble on expression in E. coli; label from the status in PepcDB or PDB records

| Sequence | soluble on expression in E. coli |
| --- | --- |
| MIRWMNEPLWPFIERKKSMRNLVKYVGIGLLVMGLAACDDKDTNATAQGSVAESNATGNPVNLLDGKLSFSLPADMTDQSGKLGTQANNMHVWSDATGQKAVIVIMGDDPKEDLAVLAKRLEDQQRSRDPQLQVVTNKAIELKGHKMQQLDSIISAKGQTAYSSVILGNVGNQLLTMQITLPADDQQKAQTTAENIINTLVIQ | not soluble |
| MISAIILSGGKAERMGGEKSFRKSGNKYLIENIADMLIEMEIPFVTVFKNPRFMEKPEEEIEKQLYYYKKYHQTITWDFVPGMGPLIGMLSGMLNTKSQWVFLVPCDMPFITEESIINLLSFIKEAELNGYDCIVPKHKNGFIEPLFSLYHISSVNVLGMVVEEMLEQNRSFPIRRLIDELNPLYVDVDKIDKTCDIFINLNTLKELENACFDRLEHHHHHH | soluble |
| MISCFNRQCPTGTISYTVRAGDTLYLIAGRFNTTVEAILAANPGIVPERLYIGQVICVPYAQPPQPACPIGTSPYEIKSGDTLSKIAAKFNTTVGDILNANPGIIPEKLYVGQKICIPQPKSENPGCPTMNYYVIQKGDTLPAIAKIFNVTVQQLINANPGINPNALYVGQVICIPVAPSSVRIIVSIAAKTLSLYRDGRLVKSYPVATGKPTTPTPRGTFTIINKQVNPGGPFGTRWMGLSQPHYGIHGTNNPASIGTAASNGCIRMYNEDVNELFNLVSVGTPVTIY | soluble |
| MISGLSHITLIVKDLNKTTAFLQNIFNAEEIYSSGDKTFSLSKEKFFLIAGLWICIMEGDSLQERTYNHIAFQIQSEEVDEYTERIKALGVEMKPERPRVQGEGRSIYFYDFDNHLFELHAGTLEQRLKRYHE | soluble |
| MISIHFEKAHDCHQLFQQLQGYLTKYAELGLKGGIEAGGDETLYVNYENQYVNFYDSFQPLLASIFTDYVISTKEEEWLLDIIENMFYFTDEEEKEQIVAIARSILEGDLEDMPSLSMFTNRREYIYQAFSKHIEENMTFYYDPFLTFRLREYGELLIDCVELAIDEYMMEQEYQSMVETLRQFIHSRIPKRGVIYAVYDERFHFYDEHFRLISTDEIVYDLKEELVFEHGLSVEEMVISPLVSMLPETVKVFTNDEEHGVILTLQAIFQERLKVFPLKDSPHQHREELEHHHHHH | soluble |
| MISKRNTPQRRHAILALLSEQGEVSVDALAKRFSTSEVTIRKDLAAMESHGLLLRRYGGAVPMPQELIGEAAQPVSPYKQAIGRAAAARIREHARIIIDSGSTTAAMIPELGHKPGLVVMTNSLNVVNALRELEHEPVLLMTGGTWDPHSESFQGQVAEQVLRSYDFDQLFIGADGIDLERGTTTFNELLGLSRVMAEVAREVIVMAEADKVGRRIPNQELPWSSIHTLITDERLESSAREQITARGVTLICTPVEALEHHHHHH | not soluble |
| MISVFHYHQPKIGNSESEYEDAFSYDVEKGLFAMADGSSESVFSNEWARSLVDTFVAGKYDMKIDDMVETAVGMWRSKLPWNNMKWFVKNKIARGSMATFLGLEVLDGSFRSVAVGDTCLFIITPEGMKSFPVKYPSEFGNTPKLIWTGNPLLRTRRSIKWANYMEGRISESDLLIMATDSLAHWMLSRAKQRPWQILIDHSENEGEFIGSLINSGEMKNDDVTFAIISLK | not soluble |
| MITPSRYPGIYIAPLSSEPTAAHTFKEQAEKALDHISAGPSGRELLQEISKLASKKDRKVTLKEIEINNQCYTDAVLSRRQLEKYEPEDFNENRRIASRLSRKGTFTKGEGSNAIIGWSPDKASIRLNQNGSPLRLGMDNDDKITTLAHELVHVRHVLSGSSLADDGDRYNPRTGSGKEELRAVGLDKYSYSLTKEPSENSIRAEHGLPLRMKYRPHQ | not soluble |
| MITPVSSFSIDDLLRGHSNEIQRILKLDQTSPTPQSSSDEGSEKSSISVMSVPLTNELTPTITPALSDQLWLAAAAFPIEHSLLLAQRNGVFPGFWSTADQIRLSNATKAYRRLRLECSRRKARTVFSDQQLQGLERRFESQRYLSTPERIELANALNLSETQVKTWFQNRRMKHKKVVRKDDNSVDDDNGNDNESE | not soluble |
| MITTPNISLTPTVAPPVDFPIIGNCDFQAQLWHLMSLHLQMQKSSAASTSSSSSSSTSSENLKKSPSSVQNTSVFSIDNILNSQKVPKLELENDEDVSSSPSPTCSTTGYTLDSLQNLDRRSLNKKGPSSHNRCVCDKCGKSYATTSNLSRHKQTHRALDSPHAKQCPHCDRVYVSMPALSMHILTHNASHECNVCGKRFSRLWLLQGHLRSHTGLRPFSCAHCGKSFADRSNLRAHMLTHTGDKRFECDKCGRRFALRAYLNRHLETCK | not soluble |
| MIVMPKRLSDEIASRVRALIEEQNLEAGMKLPAERQLALQLGVSRNSLREALAKLVSEGVLVSRRGGGTFVRWQHETWSEQNIVQPLKMLMANDPDYSFDILEARHAIEASTAWHAAMRATAADKEKIRLCFDATLSEDPDLASQADVRFHLAIAEASHNVVLLQTMRGFFDVLQSSVKQSRQRMYLVPPVFSKLTEQHQAVMDAILDGNAEGARKAMMAHLSFVHTTIKRFDEDQARQARITRLPGDHNEMTRENKS | not soluble |
| MIVNDSVVIHASRDIAADAAGNISVTTADLKVSVMLRVADKPERATAQLVFRALSEVEAFKMRVADEVERLQHSFEQDFETRHRELDQEVARAAEDTIAHRLLERREYVNLRAIERNDDNIILRVTGGVWVGTELYLLFEIQNRDSTPYHLDRVRVVGAGEERAGAVAFEDRTYPEGGSMGSIASGQRGRGIVAVRNARQLAGQPVRLIVSEARERRAVSVGDIRWR | not soluble |
| MIWRLIMLIDRFGRPVTNLRISLTKECNLSCFYCHREGQLDGERFMTPEEIERIVRVASRLGIKKVKLTGGEPTIRKDILEIIRRLKPYVVDLSLTTNGTTMYVLAEKLKEAGLDRVNISLDTLDRKKYKMITGFNVLDEVIKGIKKATKLFYPVKLNMVVMKGVNDDEIWDMMRFAGEVNAILQLIELEVPREMENSQFFKDFFYPLKPLEEKFEKLAVKVKERRMHRRRKYFIPIDGKIVEVEVVRSMHNTVFCMNCTRLRLTADGYLKTCLLRRDDLIDILGPLRNGASDADLIEIFKRAVLLRRPYWTSNSSLEHHHHHH | soluble |
| MIYIIQGGRAGNQLFSYAFAQRIRQIYGNEEICFVLSAIKNKAMDDCNGAYWEDSLKYFDVQDYSVSFEDNIVTKEGNLFQRFLYQFWRGSRKLNNIIFSLTGVEFSKFSLLLNRVVFNLISRFGLYIITHGFSESIKKTSFKNKFIYGSFEDNRWFSDIESKLRLEFKPKYNLNEKALQLYNELLNQNAICVSLRKWSIDVHDDSELEKREICDRNYYEKAINHIINTVEKPIFVVFSDDLEWASELMRSIIKDRYPLLVEKGDNNVAEKLFLMSTCKHFIIANSTFSWWAAYLGEFSDKIVVSPNIWFKSNKQFHPLILDDWIKINCQLEHHHHHH | not soluble |
| MIYINLYNSNQMTKGILIAGTHSGVGKTTVSMGIMAALKHRQLKVQPYKVGPDYIDPSHHTAICGRPSRNLDTYLMGTEGVRQTVARTSADADIAVVEGVMGLFDGIDSTEVASSAHVAKTLDIPVILVINVHGMSRSAAALLKGYSEFDPEVRVAGVILNQVGSPRHAELVKNSLPGNIPIIGTIPRRKDIEVPSRHLGLYMAHEK | not soluble |
| MIYLRKLKKEDLMSLWEMAYSQLNPVWKQYDAPYYDDYQYFSNFKEFELQKSESILSNSNRLGIFVDDKLVGTVSRYWVCKETRWMELGIGIYDKKFWNTGIGKVAMLQWIDRTFQDYLELEHLGLTTWSGNIGMMKLAEKLRMKKEAHIPKVRYYQGKYFDSIKYGILREDWEKINDGYYQINGNS | not soluble |
| MIYPLPAILVSCGKDESEYNIITVAWTGTICTNPPMCYISVRPERHSYDIIKKNMEFVINLTTKDMAFPTDWCGVRSGRNYRKFEEMKLTPGRCTVVSAPLIEESPLCIECRVKEIVSLGSHDMFIADVVNVRADDRNLNPETGKFELAEANPLVYVHGGYYDLGEKIGKFGWSVEKKK | not soluble |
| MKAAEHDLLTIELAPRRRDELQIHNKKIAEVDHWLKNVFSESNKQLGVMYLTGPAGSGKSTTVEVMCTEQNIEIIEYSPEYLHNEDFECEKPDFTQLRRFLLRRHGSLRGGGLKKRLLLVTELPDQAYSDAEKFREDLSEVLQHIWHPVIFCLTNSIACWNLNPDRLFTKDFNIMNGIDTVTFNPVADSFMKKALVRASNCLSSPLSDAKLNVIGEEAGGDLRIAMNMLQMNSIGPNADRRSGNSVICASKANREEAFHMIGRILYAKRVNPNVPKPSRFSKRRRKSAPIPEPLVRTELEHDPTDIITMSSMTSEKLLDFLFQNEPIFCSNISKYRYVAETFSMCDFLTGDWTTRKSLPEDYVAQMATRSVMWNNYKEPRPGTLFAVGRPLRSSLEKHTARTKLELQRLPMIGAKDYAALTCPYITIIKDIIDPQRIEYFLSRPMDINWQWGNDKIEEHLEKQYALDYKGRKKHRLPLHKAPKPSGKIIEVVDLEEEEEKFTIEESSDDSFEEF | not soluble |
| MKAAVVEQFKEPLKIKEVEKPTISYGEVLVRIKACGVCHTDLHAAHGDWPVKPKLPLIPGHEGVGIVEEVGPGVTHLKVGDRVGIPWLYSACGHCDYCLSGQETLCEHQKNAGYSVDGGYAEYCRAAADYVVKIPDNLSFEEAAPIFCAGVTTYKALKVTGAKPGEWVAIYGIGGLGHVAVQYAKAMGLNVVAVDIGDEKLELAKELGADLVVNPLKEDAAKFMKEKVGGVHAAVVTAVSKPAFQSAYNSIRRGGACVLVGLPPEEMPIPIFDTVLNGIKIIGSIVGTRKDLQEALQFAAEGKVKTIIEVQPLEKINEVFDRMLKGQINGRVVLTLEDK | soluble |
| MKAFDQVNHSLLLHKLHDFGINPLFCNWFHDFLSSRTFSVKVNNHIDPNIHPIPSGVPQGSVSGPFLFLIFINSLLLSLPPTISCSAFADDLKVYSHSPPLIQTTIDLITAWSENNKLPLAHSKTCLLHLGKKNPKTVYKINNLPISPSNVARDLGILTDSKLTFKTHIKKIVFLALLRCKQLLKSFKSLCPEFCCNLFKTYILPLIEYGSAVYSPKPSSSLSTLLEKPLRWYSQKVLQKCNISYSSYNDRLKSLNLHSIRHRRLKSKLILLYKFCCGTSFLPQKETYFKLSTSSRRPMRIICHNPSSNNFFSDTISFWNAITNNCDTFLSPIHFENLVDNSITRL | not soluble |
| MKAIILAGGQSERFGEPKAFAQINAQPFYKRIIDVLEGTNMFNQIIISTNETLASQFDHSDIIIDEDQNKDKGPLAGIQSVIQHYESEELFFVVSVDTPMISQKAVSKLYQFMVEHLIEDQLDIAGFKEKGRPIPTIAFYSPHTLPYIDDALNSNDYSLKSVYNKVKSDWLDVNLIESPDYWYKNINYQQDLDSLQQDILNR | not soluble |
| MKAIPSNVWATRPTKPFTCFFCPMIVLTEDGSPTILSPHYGEYYHSIHGACRESEHVFVHTGLLHRLESFDPSGTLYLFEVGFGTALNALLTLREQRCRGLSIHYSAIEKFPLERDVYEHLRFSVGMADEDKLLQSLHHAPWGMDCEICPGFTLHKIASDLTDFTFRKPIDLIYFDAFSPEAQPELWSEEIFIRMVAACRSGAVLATYCAKGEIRRRLTRAGFHMERLPGPPGKREILRGTYYLEDRGDSL | not soluble |
| MKAMRYEQISENAFKGKIQVYLEQILGDASLILKTLHEKDQCLLCELDDLGHVFQDMQGIASSFYLQSYIEEFTPAFIELAKAIKALSEHKHGALIVIERADPVERFIQKGTSLHAEISSSLIESIFFPGNPLHDGALLVRENKLVSASNVLPLTTKEVDIHLGTRHLAALGMSGYTDALVLVVSEETGKMSFAKDGVLYPLISPRT | not soluble |
| MKAQVEYIILPFKKRLDGFTYWQRELEPAIHPALKAYVKAENATGGVSSVMIFWEIARNTDHFCSDFKTDRDVRMFLTLYFWKYLCYFANIDFYTGQDKTEEILKGEAD | not soluble |
